Targets include SerRS WT (human, UniProt P49591 1-514); SerRS deltaUNE-S (human, UniProt P49591 1-469); SerRS T429A (human, UniProt P49591 1-514, T429A).
Common to all, as to experiment: EMSA
(Mobility shift assays separate free from complexed probe on a gel.)

SerRS WT, sequence (P49591 whole entry): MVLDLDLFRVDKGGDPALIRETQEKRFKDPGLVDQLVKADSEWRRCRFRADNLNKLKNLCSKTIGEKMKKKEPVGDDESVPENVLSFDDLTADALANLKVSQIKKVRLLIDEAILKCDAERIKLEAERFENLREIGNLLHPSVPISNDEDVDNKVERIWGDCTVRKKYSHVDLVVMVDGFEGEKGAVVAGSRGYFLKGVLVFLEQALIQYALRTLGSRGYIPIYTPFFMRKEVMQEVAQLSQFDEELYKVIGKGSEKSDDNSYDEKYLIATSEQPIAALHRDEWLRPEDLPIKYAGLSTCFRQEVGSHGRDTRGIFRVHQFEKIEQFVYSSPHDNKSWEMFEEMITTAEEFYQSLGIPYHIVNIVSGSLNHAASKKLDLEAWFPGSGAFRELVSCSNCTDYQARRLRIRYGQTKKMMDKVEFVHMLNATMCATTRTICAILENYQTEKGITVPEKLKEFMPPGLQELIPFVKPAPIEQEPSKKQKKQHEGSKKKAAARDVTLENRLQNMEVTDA
SerRS T429A, sequence (P49591 whole entry T429A): as the sequence (P49591 whole entry) above, with T429A counted along it
SerRS deltaUNE-S, sequence (P49591 1-469, stated change not applied): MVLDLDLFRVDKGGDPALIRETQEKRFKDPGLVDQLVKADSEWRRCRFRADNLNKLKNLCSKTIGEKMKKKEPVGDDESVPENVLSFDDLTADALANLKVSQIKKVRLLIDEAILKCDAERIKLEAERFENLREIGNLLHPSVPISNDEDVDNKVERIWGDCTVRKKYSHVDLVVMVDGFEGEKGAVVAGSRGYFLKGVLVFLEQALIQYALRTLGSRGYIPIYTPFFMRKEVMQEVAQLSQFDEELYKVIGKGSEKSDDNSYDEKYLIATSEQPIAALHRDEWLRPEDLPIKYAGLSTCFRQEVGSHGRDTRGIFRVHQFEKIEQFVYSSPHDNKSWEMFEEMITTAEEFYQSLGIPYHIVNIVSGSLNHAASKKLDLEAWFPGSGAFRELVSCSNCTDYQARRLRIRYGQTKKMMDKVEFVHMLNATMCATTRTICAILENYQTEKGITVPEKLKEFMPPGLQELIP

B1: VEGFA 3'UTR WT RNA (ssRNA)
RNA: UGAGCCGGGCAGGAGGAAGGAGCCUCCCUCAGGGUUUCGGGAACCAGAUCUCUCACCAGGAAAGACUGA
For B1, the binding result with SerRS WT is listed as “binds”; in the data set with SerRS deltaUNE-S, “no binding”; with SerRS T429A it was “binds”.

B2: MSH2 S612X RNA (ssRNA)
RNA: UCAAAUGGAGCACCUGUUCCAUAUGUACGA
B2: the binding result with SerRS WT is “binds”.

(Values after article PMC10602924.)
